# Laboratory results reported in patent US20180362631A1 (Eli Lilly, published 2018).
# T1: human CXCL1 (Gro alpha) (human, UniProt P09341 35-107)
# T1 sequence: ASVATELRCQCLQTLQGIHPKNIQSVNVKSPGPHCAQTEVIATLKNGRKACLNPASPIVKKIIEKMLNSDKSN
# T2: human CXCL8 (IL-8) (human, UniProt P10145 28-99)
# T2 sequence: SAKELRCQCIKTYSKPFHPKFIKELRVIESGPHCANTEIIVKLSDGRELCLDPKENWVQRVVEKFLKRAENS
# T3: human CXCL2 (Gro beta) (human, UniProt P19875 35-107)
# T3 construct: also called human Gro-beta
# T3 sequence: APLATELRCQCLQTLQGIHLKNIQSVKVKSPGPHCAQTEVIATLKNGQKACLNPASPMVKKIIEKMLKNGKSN
# T4: human CXCL3 (Gro gamma) (human, UniProt P19876 35-107)
# T4 construct: also called human Gro-gamma
# T4 sequence: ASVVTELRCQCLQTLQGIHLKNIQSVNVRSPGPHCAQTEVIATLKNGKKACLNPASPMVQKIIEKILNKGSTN
# T5: human CXCL5 (ENA-78) (human, UniProt P42830 41-114)
# T5 construct: also called human ENA-78
# T5 sequence: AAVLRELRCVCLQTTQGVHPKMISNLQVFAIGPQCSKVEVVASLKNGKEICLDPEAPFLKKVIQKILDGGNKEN
# T6: human CXCL6 (GCP-2) (human, UniProt P80162 40-114)
# T6 construct: also called human GCP-2
# T6 sequence: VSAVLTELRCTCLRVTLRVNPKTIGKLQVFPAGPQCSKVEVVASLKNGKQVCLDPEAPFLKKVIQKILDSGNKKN
# T7: human CXCL7 (NAP-2) (human, UniProt P02775 59-128)
# T7 construct: also called human NAP-2
# T7 sequence: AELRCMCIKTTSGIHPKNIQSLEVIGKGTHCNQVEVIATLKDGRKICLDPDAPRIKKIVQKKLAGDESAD
# B1: Antibody 1 (antibody, human IgG4 S228P, kappa, V domains shown)
# VH: QVQLVQSGAEVKKPGASVKVSCKASGYEFTSYWIHWVRQAPGQGLEWMGNISPNSGSANYNEKFKSRVTMTRDTSTSTVYMELSSLRSEDTAVYYCAREGPYSYYPSREYYGSDLWGQGTLVTVSS
# VL: EIVLTQSPATLSLSPGERATLSCRASQSISNNLHWYQQKPGQAPRLLIYYTSRSVSGIPARFSGSGSGTDFTLTISSLEPEDFAVYYCGQNNEWPEVFGGGTKVEIKR
# notes: Full-length IgG4 antibody expressed in NS0 cells
# B2: Antibody 2 (antibody, human IgG4 S228P, kappa, V domains shown)
# VH: QVQLVQSGAEVKKPGASVKVSCKASGYEFTSYWIHWVRQAPGQGLEWMGNISPNSGSANYNEKFKSRVTMTRDTSTSTVYMELSSLRSEDTAVYYCAREGPYSYYPSRQYYGSDLWGQGTLVTVSS
# VL: EIVLTQSPATLSLSPGERATLSCRASQSISNNLHWYQQKPGQAPRLLIYYTSRSVSGIPARFSGSGSGTDFTLTISSLEPEDFAVYYCGQNNEWPEVFGGGTKVEIKR
# notes: as for B1
# Assays:
# human CXCL1 (Gro alpha) [1] = target: T1, human CXCL1 (Gro alpha); test: cell-based or functional assay
# human CXCL8 (IL-8) [2] = target: T2, human CXCL8 (IL-8); test: cell-based or functional assay
# [3] = target: T8, human CXCL8 point mutant L49A (human, UniProt P10145 28-99, limits assumed); test: cell-based or functional assay
# human CXCL8 (IL-8) [4] = target: T2, human CXCL8 (IL-8); test: cell-based or functional assay; remark: listed apart in the source
# [5] = target: human CXCL8 point mutant R6A (human, UniProt P10145 28-99, limits assumed); test: SPR (Biacore 2000), antibody captured on Protein A
# human CXCL1 (Gro alpha) [6] = target: T1, human CXCL1 (Gro alpha); test: SPR (Biacore 2000), antibody captured on Protein A, chemokine as analyte, 25 C
# Procedure: (§1) Biacore 2000 instrument and Biacore 2000 Evaluation Software Version 4.1 are used for surface plasmon resonance analysis. A […] chip is prepared using manufacturer's EDC/NHS amine coupling method. Briefly, the surfaces of all four flow cells are activated by injecting a 1:1 mixture of EDC/NHS for 7 minutes at 10 μL/min. Protein A is diluted to 100 μg/mL in 10 mM acetate, pH 4.5 buffer, and immobilized to achieve approximately 10,000 RU onto all 4 flow cells by 7-minute injection at a flow rate of 10 μL/minute. Unreacted sites are blocked with a 7-minute injection of ethanolamine at 10 μL/minute. Two injections of glycine (pH 1.5) for 30 seconds at 10 μL/minute are used to remove any non-covalently associated protein. Running buffer is HBS-EP+.
# (§2) Antibody 1 or Antibody 2 is diluted to 2 μg/mL in running buffer, and approximately 400-600 RU is captured in flow cell (Fc). Ligands are diluted from 100 μg/mL to 50 nM in running buffer and then two-fold serially diluted in running buffer to 3.125 nM. Duplicate injections of each ligand concentration are injected at 100 μL/min for 150 seconds followed by a dissociation phase. The dissociation phase is 1800 seconds for all ligands. Regeneration is performed by injecting 10 mM glycine (pH 1.5) for 60 seconds at […] over all flow cells. Reference-subtracted data is collected as Fc2-Fc1, Fc3-Fc1, and Fc4-Fc1. The measurements are obtained at 25° C. The on-rate (kₒₙ) and off-rate (koff) for each ligand are evaluated using a “1:1 (mass transfer) Binding” binding model. The affinity […] is calculated from the binding kinetics according to the relationship: KD=koff/kₒₙ.
# human CXCL2 (Gro beta) = target: T3, human CXCL2 (Gro beta); test: as above
# Procedure: as §1, §2
# human CXCL3 (Gro gamma) = target: T4, human CXCL3 (Gro gamma); test: as above
# Procedure: as §1, §2
# human CXCL5 (ENA-78) = target: T5, human CXCL5 (ENA-78); test: as above
# Procedure: as §1, §2
# human CXCL6 (GCP-2) = target: T6, human CXCL6 (GCP-2); test: as above
# Procedure: as §1, §2
# human CXCL7 (NAP-2) = target: T7, human CXCL7 (NAP-2); test: as above
# Procedure: as §1, §2
# human CXCL8 (IL-8) [7] = target: T2, human CXCL8 (IL-8); test: as above
# Procedure: as §1, §2
# [8] = target: human CXCL8 point mutant I10A (human, UniProt P10145 28-99, limits assumed); test: SPR (Biacore 2000), antibody captured on Protein A, CXCL8 variant as analyte, 25 C
# Procedure: (§3) Binding kinetics are tested on a Biacore 2000 instrument with Biacore 2000 Evaluation Software Version 4.1 as described above.
# (§4) The on-rate (kₒₙ) and off-rate (koff) for each ligand are evaluated using a “1:1 (mass transfer) Binding” binding model. The affinity (KD) is calculated from the binding kinetics according to the relationship: KD=koff/kₒₙ.
# [9] = target: human CXCL8 point mutant A35P (human, UniProt P10145 28-99, limits assumed); test: as above
# Procedure: as §3, §4
# [10] = target: human CXCL8 point mutant I40A (human, UniProt P10145 28-99, limits assumed); test: as above
# Procedure: as §3, §4
# [11] = target: T8, human CXCL8 point mutant L49A; test: as above
# Procedure: as §3, §4
# human CXCL8 (IL-8) [12] = target: T2, human CXCL8 (IL-8); test: as above
# Procedure: as §3, §4
binder,measurement,setting,value
B1,"IC50, chemotaxis of primary human neutrophils, CXCL1 at 5 nM",human CXCL1 (Gro alpha) [1],18500 pM
same,"IC50, chemotaxis of primary human neutrophils, CXCL1 at 20 nM",human CXCL1 (Gro alpha) [1],40300 pM
same,"IC50, chemotaxis of primary human neutrophils, CXCL8 at 5 nM",human CXCL8 (IL-8) [2],26400 pM
same,"IC50, chemotaxis of primary human neutrophils, CXCL8 at 10 nM",human CXCL8 (IL-8) [2],43700 pM
same,IC50 (U937 FLIPR neutralization),[3],1.5 µg/mL
same,IC50 (U937 FLIPR neutralization),human CXCL8 (IL-8) [4],0.9 µg/mL
same,binding result,[5],no binding
same,Kd,human CXCL1 (Gro alpha) [6],113 pM
same,koff,human CXCL1 (Gro alpha) [6],0.000105 s⁻¹
same,kon,human CXCL1 (Gro alpha) [6],930000 M⁻¹ s⁻¹
same,Kd,human CXCL2 (Gro beta),171 pM
same,koff,human CXCL2 (Gro beta),0.000131 s⁻¹
same,kon,human CXCL2 (Gro beta),773000 M⁻¹ s⁻¹
same,Kd,human CXCL3 (Gro gamma),172 pM
same,koff,human CXCL3 (Gro gamma),0.000123 s⁻¹
same,kon,human CXCL3 (Gro gamma),716000 M⁻¹ s⁻¹
same,Kd,human CXCL5 (ENA-78),226 pM
same,koff,human CXCL5 (ENA-78),0.000122 s⁻¹
same,kon,human CXCL5 (ENA-78),543000 M⁻¹ s⁻¹
same,Kd,human CXCL6 (GCP-2),818 pM
same,koff,human CXCL6 (GCP-2),0.000578 s⁻¹
same,kon,human CXCL6 (GCP-2),707000 M⁻¹ s⁻¹
same,Kd,human CXCL7 (NAP-2),181 pM
same,koff,human CXCL7 (NAP-2),0.000161 s⁻¹
same,kon,human CXCL7 (NAP-2),900000 M⁻¹ s⁻¹
same,Kd,human CXCL8 (IL-8) [7],384 pM
same,koff,human CXCL8 (IL-8) [7],0.00013 s⁻¹
same,kon,human CXCL8 (IL-8) [7],339000 M⁻¹ s⁻¹
same,Kd,[8],1260 pM
same,koff,[8],0.000344 s⁻¹
same,kon,[8],277000 M⁻¹ s⁻¹
same,Kd,[9],4740 pM
same,koff,[9],0.00497 s⁻¹
same,kon,[9],1.06e+06 M⁻¹ s⁻¹
same,Kd,[10],27100 pM
same,koff,[10],0.000424 s⁻¹
same,kon,[10],16100 M⁻¹ s⁻¹
same,Kd,[11],3830 pM
same,koff,[11],0.000544 s⁻¹
same,kon,[11],143000 M⁻¹ s⁻¹
same,Kd,human CXCL8 (IL-8) [12],236 pM
same,koff,human CXCL8 (IL-8) [12],0.000441 s⁻¹
same,kon,human CXCL8 (IL-8) [12],3.03e+06 M⁻¹ s⁻¹
B2,Kd,human CXCL1 (Gro alpha) [6],243 pM
same,koff,human CXCL1 (Gro alpha) [6],0.000153 s⁻¹
same,kon,human CXCL1 (Gro alpha) [6],628000 M⁻¹ s⁻¹
same,Kd,human CXCL2 (Gro beta),180 pM
same,koff,human CXCL2 (Gro beta),2.05e-05 s⁻¹
same,kon,human CXCL2 (Gro beta),114000 M⁻¹ s⁻¹
same,Kd,human CXCL3 (Gro gamma),379 pM
same,koff,human CXCL3 (Gro gamma),0.000176 s⁻¹
same,kon,human CXCL3 (Gro gamma),465000 M⁻¹ s⁻¹
same,Kd,human CXCL5 (ENA-78),354 pM
same,koff,human CXCL5 (ENA-78),0.000151 s⁻¹
same,kon,human CXCL5 (ENA-78),427000 M⁻¹ s⁻¹
same,Kd,human CXCL6 (GCP-2),849 pM
same,koff,human CXCL6 (GCP-2),0.000611 s⁻¹
same,kon,human CXCL6 (GCP-2),719000 M⁻¹ s⁻¹
same,Kd,human CXCL7 (NAP-2),418 pM
same,koff,human CXCL7 (NAP-2),0.000218 s⁻¹
same,kon,human CXCL7 (NAP-2),521000 M⁻¹ s⁻¹
same,Kd,human CXCL8 (IL-8) [7],473 pM
same,koff,human CXCL8 (IL-8) [7],0.000124 s⁻¹
same,kon,human CXCL8 (IL-8) [7],261000 M⁻¹ s⁻¹
